Experiment [1] concerns the target C-terminally truncated PTEN (t-PTEN, aa 1-378) (human) (UniProt P60484).
The target is the same in experiment [2]. This is another data set of the same source.

Take “synthetic C-tail tetraphosphorylated peptide (aa 379-403, 4p-25mer) (from UniProt P60484 379-403)”: the inhibition of t-PTEN soluble PIP3 (diC6-PIP3) phosphatase activity by the peptide in trans, malachite green phosphate release, IC50 in experiment [1] stood at 1 µM. This substance registered an extent of inhibition of the lipid phosphatase activity of t-PTEN by 4p-25mer with soluble PIP3 substrate in experiment [2] greater than 95%.

For the origin of these results see article PMC3707082.
